Experimental data as given in PMC3176292, “Mutations in Protein-Binding Hot-Spots on the Hub Protein Smad3 Differentially Affect Its Protein Interactions and Smad3-Regulated Gene Expression” (PLoS ONE, 2011).
Changes are numbered by the printed parent chain.

Experiments:
Assay in all cases: co-IP; LUMIER: Renilla luciferase-Smad3 and Flag-tagged partner co-expressed with constitutively active Alk5 in HEK-293; Flag protein captured from cleared lysate (TNE: 10 mM Tris-HCl pH 7.8, 150 mM NaCl, 1 mM EDTA, 1% Igepal CA-630) on anti-Flag 96-well plates, 2 h at 4 °C; co-precipitated Renilla luciferase activity, TrxGA background subtracted, percent of wild-type Smad3
Settings in all cases: partners not purified
[1] = molecular target: T1, Ski Smad-binding domain (amino acids 2–56) on the 3xFlag-thioredoxin scaffold (UniProt P12755 2-56)
T1 construct: Ski, amino acids 2–56; cloned into the unique RsrII site of pCI-3xFLAG-Trx; also called Ski aa2–56; TrxSki; source: HEK-293, transfected, in lysate
T1 sequence (looked up): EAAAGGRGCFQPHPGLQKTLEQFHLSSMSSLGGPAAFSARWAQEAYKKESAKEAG

Flag-SARA, full length = molecular target: T2, Flag-SARA, full length (UniProt O95405 1-1425)
T2 construct: SARA; plasmid pCMV5b-Flag-SARA; also called SARA FL; source: HEK-293, transfected, in lysate
T2 sequence (looked up): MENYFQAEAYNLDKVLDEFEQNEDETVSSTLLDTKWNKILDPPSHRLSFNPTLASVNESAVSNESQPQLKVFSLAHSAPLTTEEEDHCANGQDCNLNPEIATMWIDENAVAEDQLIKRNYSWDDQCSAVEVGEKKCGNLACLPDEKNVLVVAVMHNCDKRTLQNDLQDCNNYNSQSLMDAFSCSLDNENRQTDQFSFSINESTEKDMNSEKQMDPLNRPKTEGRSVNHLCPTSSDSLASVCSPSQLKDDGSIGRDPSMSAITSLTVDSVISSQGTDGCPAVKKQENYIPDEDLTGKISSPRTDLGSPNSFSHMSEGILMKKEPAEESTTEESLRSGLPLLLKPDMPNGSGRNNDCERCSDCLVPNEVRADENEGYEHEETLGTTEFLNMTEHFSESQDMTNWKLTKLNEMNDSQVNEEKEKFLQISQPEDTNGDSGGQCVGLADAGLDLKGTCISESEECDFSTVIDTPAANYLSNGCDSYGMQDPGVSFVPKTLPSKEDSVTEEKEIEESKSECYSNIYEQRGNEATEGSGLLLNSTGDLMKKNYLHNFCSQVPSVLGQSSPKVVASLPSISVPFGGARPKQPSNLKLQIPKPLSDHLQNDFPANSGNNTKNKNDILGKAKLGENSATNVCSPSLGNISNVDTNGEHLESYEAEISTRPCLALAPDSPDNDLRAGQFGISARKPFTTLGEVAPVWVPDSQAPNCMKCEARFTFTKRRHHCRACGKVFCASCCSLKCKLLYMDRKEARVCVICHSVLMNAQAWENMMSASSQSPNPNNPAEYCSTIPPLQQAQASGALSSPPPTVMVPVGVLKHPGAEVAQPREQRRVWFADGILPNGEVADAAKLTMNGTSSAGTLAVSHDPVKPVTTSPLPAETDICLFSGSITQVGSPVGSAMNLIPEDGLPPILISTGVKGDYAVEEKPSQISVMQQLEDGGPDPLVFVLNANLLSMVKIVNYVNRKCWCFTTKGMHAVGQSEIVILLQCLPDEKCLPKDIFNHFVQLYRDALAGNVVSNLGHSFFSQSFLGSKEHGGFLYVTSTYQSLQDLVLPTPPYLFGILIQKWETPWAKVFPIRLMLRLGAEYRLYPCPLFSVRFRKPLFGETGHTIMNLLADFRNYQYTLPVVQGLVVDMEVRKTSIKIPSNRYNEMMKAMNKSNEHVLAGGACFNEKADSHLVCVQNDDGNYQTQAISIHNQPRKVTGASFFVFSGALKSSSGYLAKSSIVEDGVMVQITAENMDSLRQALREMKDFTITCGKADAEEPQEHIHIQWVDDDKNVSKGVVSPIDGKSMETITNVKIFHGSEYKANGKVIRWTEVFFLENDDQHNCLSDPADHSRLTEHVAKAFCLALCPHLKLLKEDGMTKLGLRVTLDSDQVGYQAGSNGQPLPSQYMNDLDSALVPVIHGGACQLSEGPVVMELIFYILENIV

Flag-Smad4, full length = molecular target: T3, Flag-Smad4, full length (UniProt Q13485 1-552)
T3 construct: Smad4; plasmid pCMV5-Flag-Smad4 (from J. Massagué); also called Smad4 FL; source: HEK-293, transfected, in lysate
T3 sequence (looked up): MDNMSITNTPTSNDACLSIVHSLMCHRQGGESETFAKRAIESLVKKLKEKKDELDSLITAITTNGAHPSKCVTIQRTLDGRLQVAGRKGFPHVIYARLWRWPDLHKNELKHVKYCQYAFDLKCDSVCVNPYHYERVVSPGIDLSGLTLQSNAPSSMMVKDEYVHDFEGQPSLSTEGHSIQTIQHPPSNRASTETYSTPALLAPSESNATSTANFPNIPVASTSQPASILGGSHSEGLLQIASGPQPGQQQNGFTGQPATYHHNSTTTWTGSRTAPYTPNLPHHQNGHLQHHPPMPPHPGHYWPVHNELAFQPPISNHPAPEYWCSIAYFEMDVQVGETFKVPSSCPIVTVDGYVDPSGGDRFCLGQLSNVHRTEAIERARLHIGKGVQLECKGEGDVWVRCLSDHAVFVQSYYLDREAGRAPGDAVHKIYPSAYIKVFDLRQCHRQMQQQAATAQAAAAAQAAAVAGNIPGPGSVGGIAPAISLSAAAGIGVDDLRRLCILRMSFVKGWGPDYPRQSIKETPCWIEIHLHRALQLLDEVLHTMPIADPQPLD

B1: Renilla luciferase-Smad3 Y226A (natural protein, UniProt P84022 1-425, looked up)
chain: MSSILPFTPPIVKRLLGWKKGEQNGQEEKWCEKAVKSLVKKLKKTGQLDELEKAITTQNVNTKCITIPRSLDGRLQVSHRKGLPHVIYCRLWRWPDLHSHHELRAMELCEFAFNMKKDEVCVNPYHYQRVETPVLPPVLVPRHTEIPAEFPPLDDYSHSIPENTNFPAGIEPQSNIPETPPPGYLSEDGETSDHQMNHSMDAGSPNLSPNPMSPAHNNLDLQPVTACEPAFWCSISYYELNQRVGETFHASQPSMTVDGFTDPSNSERFCLGLLSNVNRNAAVELTRRHIGRGVRLYYIGGEVFAECLSDSAIFVQSPNCNQRYGWHPATVCKIPPGCNLKIFNNQEFAALLAQSVNQGFEAVYQLTRMCTIRMSFVKGWGAEYRRQTVTSTPCWIELHLNGPLQWLDKVLTQMGSPSIRCSSVS
notes: Smad3; source: HEK-293, transfected together with constitutively active Alk5, in lysate
percent binding relative to wild-type Smad3 [1]: 32%
percent binding relative to wild-type Smad3 (Flag-SARA, full length): 32%
percent binding relative to wild-type Smad3 (Flag-Smad4, full length): 110%

B2: Renilla luciferase-Smad3 Y298A (natural protein, UniProt P84022 1-425, looked up)
chain: B1 chain with A226Y, Y298A
notes: as for B1
percent binding relative to wild-type Smad3 [1]: 271%
percent binding relative to wild-type Smad3 (Flag-SARA, full length): 150%
percent binding relative to wild-type Smad3 (Flag-Smad4, full length): 120%
